B1: ribosomal protein rpS30 (yeast 40S subunit) (natural protein, UniProt P0CX33 1-63, looked up)
chain: MAKVHGSLARAGKVKSQTPKVEKTEKPKKPKGRAYKRLLYTRRFVNVTLVNGKRRMNPGPSVQ
B2: ribosomal protein rpP0 (yeast 60S subunit) (natural protein, UniProt P05317 1-312, looked up)
chain: MGGIREKKAEYFAKLREYLEEYKSLFVVGVDNVSSQQMHEVRKELRGRAVVLMGKNTMVRRAIRGFLSDLPDFEKLLPFVKGNVGFVFTNEPLTEIKNVIVSNRVAAPARAGAVAPEDIWVRAVNTGMEPGKTSFFQALGVPTKIARGTIEIVSDVKVVDAGNKVGQSEASLLNLLNISPFTFGLTVVQVYDNGQVFPSSILDITDEELVSHFVSAVSTIASISLAIGYPTLPSVGHTLINNYKDLLAVAIAASYHYPEIEDLVDRIENPEKYAAAAPAATSAASGDAAPAEEAAAEEEEESDDDMGFGLFD
B3: Dom34 (Pelota of Saccharomyces cerevisiae) (natural protein, S. cerevisiae, UniProt P33309 1-386, looked up)
chain: MKVISLKKDSFNKGGAVITLLPEDKEDLFTVYQIVDKDDELIFKKKFTSKLDEAGKKKSTDLVKLKIKVISEDFDMKDEYLKYKGVTVTDESGASNVDIPVGKYLSFTLDYVYPFTIIKQNFNKFMQKLLNEACNIEYKSDTAAVVLQEGIAHVCLVTSSSTILKQKIEYSMPKKKRTTDVLKFDEKTEKFYKAIYSAMKKDLNFDKLKTIILCSPGFYAKILMDKIFQYAEEEHNKKILDNKGMFFIAHCSTGYLQGINEVLKNPLYASKLQDTKYSKEIMVMDEFLLHLNKDDDKAWYGEKEVVKAAEYGAISYLLLTDKVLHSDNIAQREEYLKLMDSVESNGGKALVLSTLHSLGEELDQLTGIACILKYPLPDLDEDDGEE

Columns and labels:
[1] = target: B3; assay: cryo-EM structure
[2] = target: Rli1 (ABCE1 of Saccharomyces cerevisiae) (S. cerevisiae, UniProt Q03195 1-608); assay: cryo-EM structure
Sequence of Rli1 (ABCE1 of Saccharomyces cerevisiae) (Q03195 whole entry): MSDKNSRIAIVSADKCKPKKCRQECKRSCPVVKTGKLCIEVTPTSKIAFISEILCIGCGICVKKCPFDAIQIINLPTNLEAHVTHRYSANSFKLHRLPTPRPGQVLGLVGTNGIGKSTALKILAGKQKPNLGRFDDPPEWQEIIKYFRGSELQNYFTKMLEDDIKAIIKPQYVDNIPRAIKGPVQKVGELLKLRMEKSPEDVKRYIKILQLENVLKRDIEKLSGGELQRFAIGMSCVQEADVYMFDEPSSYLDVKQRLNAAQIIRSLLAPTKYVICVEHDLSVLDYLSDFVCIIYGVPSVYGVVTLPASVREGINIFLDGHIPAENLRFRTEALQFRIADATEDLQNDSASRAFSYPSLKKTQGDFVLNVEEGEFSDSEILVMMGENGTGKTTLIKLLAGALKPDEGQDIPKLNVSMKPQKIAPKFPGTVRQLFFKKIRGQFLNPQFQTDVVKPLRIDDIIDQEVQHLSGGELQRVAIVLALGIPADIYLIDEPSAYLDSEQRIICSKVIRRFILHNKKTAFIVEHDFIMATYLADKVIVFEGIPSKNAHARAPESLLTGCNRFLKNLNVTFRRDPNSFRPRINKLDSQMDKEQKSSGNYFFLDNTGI

## B1
[1]
  binding result: binds

## B2
[2]
  binding result: binds

## B3
[2]
  binding result: binds
